Source: publication PMC2829314

Molecular target: LRRTM2-mVenus (full-length LRRTM2 mVenus-fusion protein) (UniProt O43300)
Experiment: saturation binding to cells

Chain of UniProt O43300 (O43300 34-516): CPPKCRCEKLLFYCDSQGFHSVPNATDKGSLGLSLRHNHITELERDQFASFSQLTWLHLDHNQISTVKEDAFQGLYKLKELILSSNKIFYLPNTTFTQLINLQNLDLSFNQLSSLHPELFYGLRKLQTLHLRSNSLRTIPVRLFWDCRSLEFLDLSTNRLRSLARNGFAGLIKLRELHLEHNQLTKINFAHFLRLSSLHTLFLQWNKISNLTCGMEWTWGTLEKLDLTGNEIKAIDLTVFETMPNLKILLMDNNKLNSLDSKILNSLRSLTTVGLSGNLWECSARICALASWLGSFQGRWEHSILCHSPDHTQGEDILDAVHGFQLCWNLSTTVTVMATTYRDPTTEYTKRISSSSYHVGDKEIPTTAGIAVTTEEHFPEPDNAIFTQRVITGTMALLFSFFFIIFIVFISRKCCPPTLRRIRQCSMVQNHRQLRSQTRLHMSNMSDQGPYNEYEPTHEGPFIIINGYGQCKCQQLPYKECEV

Q: How did the Kd turn out when “IgNrx1β^SS4− (Ig-fusion protein of neurexin-1β lacking an insert in splice site #4) (Fc fusion)” was run?
A: The Kd was 5.83 nM.
